Experimental data: patent US20220204603A1 (PHARMABCINE, published 2022)

T1: biotinylated human Ang2 protein (human, UniProt O15123 19-496, limits assumed, biotinylated (sites not given))
T1 construct: also called hAng2
T1 sequence (looked up): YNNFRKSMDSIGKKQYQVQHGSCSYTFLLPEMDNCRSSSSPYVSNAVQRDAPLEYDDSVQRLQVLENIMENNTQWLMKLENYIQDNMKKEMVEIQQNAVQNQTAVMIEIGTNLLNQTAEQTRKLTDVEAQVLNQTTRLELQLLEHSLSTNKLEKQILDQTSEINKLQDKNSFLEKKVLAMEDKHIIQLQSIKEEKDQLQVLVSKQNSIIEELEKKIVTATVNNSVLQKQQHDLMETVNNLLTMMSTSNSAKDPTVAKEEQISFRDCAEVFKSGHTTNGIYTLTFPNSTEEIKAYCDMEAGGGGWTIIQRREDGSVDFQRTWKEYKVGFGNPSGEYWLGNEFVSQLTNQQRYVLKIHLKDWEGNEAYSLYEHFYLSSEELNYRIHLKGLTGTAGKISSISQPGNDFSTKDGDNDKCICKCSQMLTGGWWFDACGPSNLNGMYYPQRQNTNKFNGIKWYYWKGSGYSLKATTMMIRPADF

T2: His-tagged mouse Ang1 (sino, 50300-M07H) (mouse, UniProt O08538 20-498)
T2 construct: Bought protein; not shown: His tag
T2 sequence (looked up): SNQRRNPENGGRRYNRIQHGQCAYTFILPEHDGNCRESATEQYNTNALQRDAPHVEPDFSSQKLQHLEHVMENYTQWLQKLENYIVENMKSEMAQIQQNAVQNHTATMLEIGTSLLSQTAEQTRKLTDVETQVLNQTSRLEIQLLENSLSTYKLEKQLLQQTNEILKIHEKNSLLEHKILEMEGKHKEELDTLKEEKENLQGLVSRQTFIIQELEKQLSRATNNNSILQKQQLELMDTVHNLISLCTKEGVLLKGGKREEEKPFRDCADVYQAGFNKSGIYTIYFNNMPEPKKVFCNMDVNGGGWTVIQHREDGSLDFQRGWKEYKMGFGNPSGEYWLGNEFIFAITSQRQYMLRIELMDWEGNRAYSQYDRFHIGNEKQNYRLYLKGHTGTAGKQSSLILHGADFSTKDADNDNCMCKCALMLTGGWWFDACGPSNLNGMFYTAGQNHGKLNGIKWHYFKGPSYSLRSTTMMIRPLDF

B1: No. 46 anti-Ang2 antibody (IgG) (antibody, V domains shown)
VH: QVQLVESGGGLVQPGRSLRLSCAASGFTFDDCAMHWVRQAPGKGLEWVSGISGNSKNVAYADSVKGRFSISRDDAKNSLYLQMNSLRAEDTAVYYCARDPAYSQFDYWGQGTLITVSS
VL: QSALTQPPSLSATPGQRVTISCSGSSSNVGGYPVNWYQQVPGAAPKLLMYTDYKRPSGVPDRFFGSKSGTSASLAISGLQSEDEADYYCATWDDNLNGYVFGTGTKVTVLG
notes: IgG form: VH cloned into Invivogen pfusess-hchg1, VL into Invivogen pfuse2ss-hclk; also called 3C6
B2: No. 41 anti-Ang2 antibody (IgG) (antibody, V domains shown)
VH: QVQLVESGGGLVQPGGSLRLSCEASGFAFGRYEMNWVRQAPGKGLEWIAYIDTGGGAKVYADSVKGRFTISRDDSKNSLYLQMNSLRAEDTAVYYCTTEGLMNGLHFDMWGQGTMITVSS
VL: DIQMTQSPSTLSASVGDRVAITCRASQAISTWLAWYQQKPGKAPKLLIYTASTLESGVPSRFSGSGSGTDFTLTINSLQPDDFATYYCQQLNSYPYTFGGGTKVEIKR
notes: IgG form: VH cloned into Invivogen pfusess-hchg1, VL into Invivogen pfuse2ss-hclk; also called 2B2
B3: No. 8 anti-Ang2 antibody (IgG) (antibody, V domains shown)
VH: QVQLVESGGGLVKPGGSLRLSCAASGFTFSSYSMNWVRQAPGKGLEWVSSISASDGATYYADSVRGRFTISRDNSRSTLYLQMNSLRAEDTAVYYCAKILAGYSGPMGGMDVWGQGTTVTVSS
VL: DIQMTQSPSSLSASVGDRVTITCRASRDISNYLAWYQQKPGKAPKSLIYGASNLQSGVSSQFSGSGSGTDFTLTINSLQPEDSATYYCQQYYSYPLTFGGGTKVDIKR
notes: IgG form: VH cloned into Invivogen pfusess-hchg1, VL into Invivogen pfuse2ss-hclk; also called 3A10
B4: No. 3 anti-Ang2 antibody (IgG) (antibody, V domains shown)
VH: QMQLVQSGGGLVQPGRSLKLSCAASGFSFDDYAMHWVRQAPGKGLEWVATIKDDGSQTYYVDSVKGRFTISRDNAKSSLFLQMNSLRAEDTAVYYCTTEGLMNGLHFDMWGQGTMVTVSS
VL: LVLTQPPSVSGAPGQGVTISCTGSSSNIGAGYDVHWYQQFPGTAPKLLISGNNNRPSGLPDRFSGSKSGTSASLAITGLQAEDEADYYCQSYDSRLGVVFGGGTKLTVLG
notes: IgG form: VH cloned into Invivogen pfusess-hchg1 (heavy chain constant region), VL into Invivogen pfuse2ss-hclk (light chain constant region); Expressed in Expi293F, purified on Protein A; also called 1D10
B5: No. 4 anti-Ang2 antibody (IgG) (antibody, V domains shown)
VH: QVQLVESGAEVKRPGESLRISCKTSGYSFTSYWIHWVRQMPGKELEWMGSIYPGNSDTRYSPSFQGHVTISADSSSSTAYLQWSSLKASDTAMYYCTTEGLMNGLHFDMWGQGTMVTVSS
VL: DIVMTQTPLSLPVTPGEPASISCRSSQSLLHSLGDNYLDWYLQKPGQSPQLLIYLGSKRAAGVPDRFSGSGSGTDFTLKISRVEAEDVGVYYCMQSLQTPPYTFGQGTKLEIKR
notes: IgG form: VH cloned into Invivogen pfusess-hchg1, VL into Invivogen pfuse2ss-hclk; also called 2D8

These binders were tested against T1, biotinylated human Ang2 protein (assay: competition ELISA: antibody preincubated with biotinylated hAng2, binding to coated integrin α5/β1).
Description: 1 μg/ml (100 μl per well) of a human Ti32-Fc (R&D Systems, 313-TI) or mouse Tie2-Fc (R&D Systems, 762-T2-100) solution, an integrin α3/β1 solution (R&D systems, 2840-A3-050), or an integrin α5/β1 solution (R&D systems, 3230-A5-050) was added to a 96-well immunoplate (Nunc, US) and then allowed to stand overnight at 4° C. for adsorption. The next day, the plate was washed four times with PBS containing 0.05% Tween-20 (hereinafter, referred to as PBST), and 200 μl of a 2% BSA/PBST solution was added to each well and then allowed to stand at room temperature for 1 hour to perform blocking. Anti-Ang2 candidate antibodies were serially diluted 4-fold at a maximum of 1000 nM, and biotinylated human Ang2 protein was made to a final concentration of 100 ng/mL or 625 ng/mL, followed by previous binding at room temperature for 1 hour. […] The plate was washed three times with PBST, 100 μl of HRP-conjugated streptavidin (R&D Systems, DY998) diluted to 1:200 was added to allow a reaction to occur at room temperature for 1 hour, thereby inducing binding, and the plate was washed four times with PBST, followed by color development using 100 μl of a TMB substrate reagent. The color development reaction was stopped by adding 50 μl of 2N H₂SO₄, and a Sunrise microplate reader (TECAN, CH) was used to measure specific absorbance OD₄₅₀ (FIGS. 4 and 5).
Work on B1 yielded an IC50 of 1.9 nM.
B2 gave an IC50 of 1.49 nM.
B3 gave an IC50 of 1.89 nM.
B4 showed an IC50 of 1.53 nM.
Binder B5 has an IC50 of 1.57 nM.

What follows are binders tested against T2, His-tagged mouse Ang1 (sino, 50300-M07H) (assay: binding ELISA, His-tagged mouse Ang1 coated at 1 µg/ml, detection with HRP anti-human IgG(kappa) [panel 'mouse Ang1 binding ELISA']).
Description: 1 μg/ml (100 μl per well) of a His-tagged human (R&D systems, 623-AN/CF) or mouse (sino, 50298-M07H) Ang2 solution or a His-tagged human (R&D systems, 923-AN/CF) or mouse (sino, 50300-M07H) Ang1 solution was added to a 96-well immunoplate (Nunc, US) and allowed to stand overnight at 4° C. for adsorption. The next day, the solution was washed three times with PBS containing 0.05% Tween-20 (hereinafter, referred to as PBST), and 200 μl of a 2% BSA/PBST solution was added to each well and then allowed to stand at room temperature for 2 hours to perform blocking. After washing three times with PBST, 100 μl of each test antibody solution was added to each well according to concentration to cause binding at room temperature for 1 hour, and then washing was performed three times with PBST, 100 μl of HRP-conjugated goat anti-human IgG(kappa) (bethyl lab #A80-115P) diluted to 1:2000 was added and allowed to react at room temperature for 1 hour, thereby inducing binding, and after washing three times with PBST, color development was performed using 100 μl of a TMB substrate reagent. The color development reaction was stopped by adding 50 μl of 2N H₂SO₄, and a Sunrise microplate reader (TECAN, CH) was used to measure specific absorbance OD₄₅₀₋₆₃₀ (FIG. 3).
B1: no binding (tested: 2 mg/ml (unit as read in the legend)).
B2: no binding (tested: 2 mg/ml (unit as read in the legend)).
B3: no binding (tested: 2 mg/ml (unit as read in the legend)).
B4: no binding (tested: 2 mg/ml (unit as read in the legend)).
B5: no binding (tested: 2 mg/ml (unit as read in the legend)).
